B1: Tom1(215–493) (domain or fragment, human, UniProt O60784-2 215-493, looked up)
chain: EQIGKLRSELEMVSGNVRVMSEMLTELVPTQAEPADLELLQELNRTCRAMQQRVLELIPQIANEQLTEELLIVNDNLNNVFLRHERFERFRTGQTTKAPSEAEPAADLIDMGPDPAATGNLSSQLAGMNLGSSSVRAGLQSLEASGRLEDEFDMFALTRGSSLADQRKEVKYEAPQATDGLAGALDARQQSTGAIPVTQACLMEDIEQWLSTDVGNDAEEPKGVTSEGKFDKFLEERAKAADRLPNLSSPSAEGPPGPPSGPAPRKKTQEKDDDMLFAL
notes: source: E. coli BL21 (DE3), purified (Ni-NTA, SEC); not shown: thioredoxin, N-terminal, cleaved; His6, N-terminal, cleaved
B2: C-terminal cargo-binding domain (CBD) of Myosin VI (residues 1157–1285) (domain or fragment, human, UniProt Q9UM54-1 1157-1285, looked up)
chain: ARQREIEMNRQQRFFRIPFIRPADQYKDPQSKKKGWWYAHFDGPWIARQMELHPDKPPILLVAGKDDMEMCELNLEETGLTRKRGAEILPRQFEEIWERCGGIQYLQNAIESRQARPTYATAMLQSLLK
notes: monomer by light scattering and ultracentrifugation; 15N-labelled in some NMR experiments; also called C-terminal CBD of Myosin VI; source: E. coli BL21 (DE3), purified (Ni-NTA, SEC); not shown: thioredoxin, N-terminal, cleaved; His6, N-terminal, cleaved

Target: B2
Test: ITC; 25 °C, 20 mM Tris pH 7.9, 100 mM NaCl, 1 mM DTT; 50 µM protein in the cell, 500 µM in the syringe; one-site binding model
Details: both partners purified

Row | Binder | Kd | dH | stoichiometry N
1 | Tom1(437–493) (domain or fragment, human, UniProt O60784-2 437-493, looked up, source: E. coli BL21 (DE3), purified (Ni-NTA, SEC); not shown: thioredoxin, N-terminal, cleaved; His6, N-terminal, cleaved) GVTSEGKFDKFLEERAKAADRLPNLSSPSAEGPPGPPSGPAPRKKTQEKDDDMLFAL | 760 nM | -12.7 ± 0.11 kcal/mol | 0.83 ± 0.01
2 | GVTSEGKFDKFLEERAKAADRLPNLSS (domain or fragment, human, UniProt O60784-2 437-463, looked up, monomer by light scattering and ultracentrifugation; also called Tom1 MBM; source: E. coli BL21 (DE3), purified (Ni-NTA, SEC); not shown: thioredoxin, N-terminal, cleaved; His6, N-terminal, cleaved) [Tom1(437–463), Myosin VI-binding motif] | 670 nM | -14.9 ± 0.1 kcal/mol | 0.74 ± 0.01
3 | Tom1(392–493) (domain or fragment, human, UniProt O60784-2 392-493, looked up, 15N-labelled in one NMR titration; source: E. coli BL21 (DE3), purified (Ni-NTA, SEC); not shown: thioredoxin, N-terminal, cleaved; His6, N-terminal, cleaved) TDGLAGALDARQQSTGAIPVTQACLMEDIEQWLSTDVGNDAEEPKGVTSEGKFDKFLEERAKAADRLPNLSSPSAEGPPGPPSGPAPRKKTQEKDDDMLFAL | 930 nM | -9.9 ± 0.11 kcal/mol | 1.12 ± 0.01
4 | B1 |  | -7.61 ± 0.09 kcal/mol | 1.44 ± 0.01
5 | Tom1(392–463) (domain or fragment, human, UniProt O60784-2 392-463, looked up, 15N-labelled in one NMR titration; source: E. coli BL21 (DE3), purified (Ni-NTA, SEC); not shown: thioredoxin, N-terminal, cleaved; His6, N-terminal, cleaved) TDGLAGALDARQQSTGAIPVTQACLMEDIEQWLSTDVGNDAEEPKGVTSEGKFDKFLEERAKAADRLPNLSS | 760 nM | -10.6 ± 0.16 kcal/mol | 0.91 ± 0.01

Target: B1
Test: as above
Details: both partners purified

Row | Binder | Kd
6 | B2 | 2130 nM

Target: B2
Test: SEC + SEC-MALS + AUC; analytical gel filtration, multi-angle light scattering (20 mM Tris-HCl pH 7.9, 100 mM NaCl, 1 mM DTT) and sedimentation velocity (20 °C) of each protein alone and of the complex
Details: both partners purified

Row | Binder | stoichiometry N
7 | GVTSEGKFDKFLEERAKAADRLPNLSS (domain or fragment, human, UniProt O60784-2 437-463, looked up, monomer by light scattering and ultracentrifugation; also called Tom1 MBM; source: E. coli BL21 (DE3), purified (Ni-NTA, SEC); not shown: thioredoxin, N-terminal, cleaved; His6, N-terminal, cleaved) [Tom1(437–463), Myosin VI-binding motif] | 1
